Test results: PMC7870652, “Single-molecule force spectroscopy reveals the dynamic strength of the hair-cell tip-link connection” (Nature Communications, 2021)

What was measured:
[1] = target: T1, single-bond CDH23 fusion protein (EC1-5/EC3-5 Fc heterodimer with one EC1-2 binding domain) (mouse, SNAPtag coupled to a benzylguanine DNA tether); test: single-molecule force spectroscopy (dual-beam optical tweezers); each protein held on a streptavidin-coated silica bead through a DNA tether on its SNAPtag (R113G proteins and fast loading rates: biotinylated directly with BG-Biotin); room temperature, TBS-TB + Ca^2+ buffer (20 mM Tris, 125 mM NaCl, pH 7.4, 0.02% Tween-20, blocking reagent), 2 mM Ca^2+; loading rates 0.39-377.8 pN s^−1; constants from fits of the …; settings: both partners purified
T1 construct: signal peptide in the construct (native; its cleavage on secretion was confirmed); cadherin-23, mouse, EC1-5; signal peptide in the construct (native, preserved by the deletion); cadherin-23, mouse, the EC1-5 construct (base pairs 408-2066 of NM_023370) from which amino acids 25-228 (EC1-2) were deleted, leaving EC3-5; 408-2066 is 1659 bp (553 codons), probably residues 1-553 of the precursor; …

[2] = target: T2, dimeric full-ectodomain CDH23 fusion protein (mouse, UniProt Q99PF4 24-3064, SNAPtag coupled to a benzylguanine DNA tether or BG-Biotin (force spectroscopy), or to a benzylguanine-PEG15-biotin linker (biolayer interferometry)); test: BLI; CDH23 biotinylated on its SNAPtag and immobilised on streptavidin-coated PEG-biotin aminopropylsilane sensors; 10–300 nM PCDH15 in solution; TBS-Tween + Ca^2+ buffer, 2 mM Ca^2+; traces of a drift sensor and of PCDH15 lacking EC1-2 subtracted; dissociation fitted with a single exponential; on-rates measured at 300 nM PCDH15 (effective on-rate); Octet Red384; settings: both partners purified
T2 construct: cadherin-23, mouse, the entire extracellular domain up to the last hydrophilic amino acid before the transmembrane domain (27 EC domains); The two halves carry opposing Fc heterodimerisation domains and the same cadherin ectodomain; also called full-length dimer; CDH23 dimer; source: HEK Expi293 cells, co-transfected, secreted; purified (Ni-NTA or TALON, size-exclusion on Superose 6 Increase)
T2 sequence (Q99PF4 24-3064): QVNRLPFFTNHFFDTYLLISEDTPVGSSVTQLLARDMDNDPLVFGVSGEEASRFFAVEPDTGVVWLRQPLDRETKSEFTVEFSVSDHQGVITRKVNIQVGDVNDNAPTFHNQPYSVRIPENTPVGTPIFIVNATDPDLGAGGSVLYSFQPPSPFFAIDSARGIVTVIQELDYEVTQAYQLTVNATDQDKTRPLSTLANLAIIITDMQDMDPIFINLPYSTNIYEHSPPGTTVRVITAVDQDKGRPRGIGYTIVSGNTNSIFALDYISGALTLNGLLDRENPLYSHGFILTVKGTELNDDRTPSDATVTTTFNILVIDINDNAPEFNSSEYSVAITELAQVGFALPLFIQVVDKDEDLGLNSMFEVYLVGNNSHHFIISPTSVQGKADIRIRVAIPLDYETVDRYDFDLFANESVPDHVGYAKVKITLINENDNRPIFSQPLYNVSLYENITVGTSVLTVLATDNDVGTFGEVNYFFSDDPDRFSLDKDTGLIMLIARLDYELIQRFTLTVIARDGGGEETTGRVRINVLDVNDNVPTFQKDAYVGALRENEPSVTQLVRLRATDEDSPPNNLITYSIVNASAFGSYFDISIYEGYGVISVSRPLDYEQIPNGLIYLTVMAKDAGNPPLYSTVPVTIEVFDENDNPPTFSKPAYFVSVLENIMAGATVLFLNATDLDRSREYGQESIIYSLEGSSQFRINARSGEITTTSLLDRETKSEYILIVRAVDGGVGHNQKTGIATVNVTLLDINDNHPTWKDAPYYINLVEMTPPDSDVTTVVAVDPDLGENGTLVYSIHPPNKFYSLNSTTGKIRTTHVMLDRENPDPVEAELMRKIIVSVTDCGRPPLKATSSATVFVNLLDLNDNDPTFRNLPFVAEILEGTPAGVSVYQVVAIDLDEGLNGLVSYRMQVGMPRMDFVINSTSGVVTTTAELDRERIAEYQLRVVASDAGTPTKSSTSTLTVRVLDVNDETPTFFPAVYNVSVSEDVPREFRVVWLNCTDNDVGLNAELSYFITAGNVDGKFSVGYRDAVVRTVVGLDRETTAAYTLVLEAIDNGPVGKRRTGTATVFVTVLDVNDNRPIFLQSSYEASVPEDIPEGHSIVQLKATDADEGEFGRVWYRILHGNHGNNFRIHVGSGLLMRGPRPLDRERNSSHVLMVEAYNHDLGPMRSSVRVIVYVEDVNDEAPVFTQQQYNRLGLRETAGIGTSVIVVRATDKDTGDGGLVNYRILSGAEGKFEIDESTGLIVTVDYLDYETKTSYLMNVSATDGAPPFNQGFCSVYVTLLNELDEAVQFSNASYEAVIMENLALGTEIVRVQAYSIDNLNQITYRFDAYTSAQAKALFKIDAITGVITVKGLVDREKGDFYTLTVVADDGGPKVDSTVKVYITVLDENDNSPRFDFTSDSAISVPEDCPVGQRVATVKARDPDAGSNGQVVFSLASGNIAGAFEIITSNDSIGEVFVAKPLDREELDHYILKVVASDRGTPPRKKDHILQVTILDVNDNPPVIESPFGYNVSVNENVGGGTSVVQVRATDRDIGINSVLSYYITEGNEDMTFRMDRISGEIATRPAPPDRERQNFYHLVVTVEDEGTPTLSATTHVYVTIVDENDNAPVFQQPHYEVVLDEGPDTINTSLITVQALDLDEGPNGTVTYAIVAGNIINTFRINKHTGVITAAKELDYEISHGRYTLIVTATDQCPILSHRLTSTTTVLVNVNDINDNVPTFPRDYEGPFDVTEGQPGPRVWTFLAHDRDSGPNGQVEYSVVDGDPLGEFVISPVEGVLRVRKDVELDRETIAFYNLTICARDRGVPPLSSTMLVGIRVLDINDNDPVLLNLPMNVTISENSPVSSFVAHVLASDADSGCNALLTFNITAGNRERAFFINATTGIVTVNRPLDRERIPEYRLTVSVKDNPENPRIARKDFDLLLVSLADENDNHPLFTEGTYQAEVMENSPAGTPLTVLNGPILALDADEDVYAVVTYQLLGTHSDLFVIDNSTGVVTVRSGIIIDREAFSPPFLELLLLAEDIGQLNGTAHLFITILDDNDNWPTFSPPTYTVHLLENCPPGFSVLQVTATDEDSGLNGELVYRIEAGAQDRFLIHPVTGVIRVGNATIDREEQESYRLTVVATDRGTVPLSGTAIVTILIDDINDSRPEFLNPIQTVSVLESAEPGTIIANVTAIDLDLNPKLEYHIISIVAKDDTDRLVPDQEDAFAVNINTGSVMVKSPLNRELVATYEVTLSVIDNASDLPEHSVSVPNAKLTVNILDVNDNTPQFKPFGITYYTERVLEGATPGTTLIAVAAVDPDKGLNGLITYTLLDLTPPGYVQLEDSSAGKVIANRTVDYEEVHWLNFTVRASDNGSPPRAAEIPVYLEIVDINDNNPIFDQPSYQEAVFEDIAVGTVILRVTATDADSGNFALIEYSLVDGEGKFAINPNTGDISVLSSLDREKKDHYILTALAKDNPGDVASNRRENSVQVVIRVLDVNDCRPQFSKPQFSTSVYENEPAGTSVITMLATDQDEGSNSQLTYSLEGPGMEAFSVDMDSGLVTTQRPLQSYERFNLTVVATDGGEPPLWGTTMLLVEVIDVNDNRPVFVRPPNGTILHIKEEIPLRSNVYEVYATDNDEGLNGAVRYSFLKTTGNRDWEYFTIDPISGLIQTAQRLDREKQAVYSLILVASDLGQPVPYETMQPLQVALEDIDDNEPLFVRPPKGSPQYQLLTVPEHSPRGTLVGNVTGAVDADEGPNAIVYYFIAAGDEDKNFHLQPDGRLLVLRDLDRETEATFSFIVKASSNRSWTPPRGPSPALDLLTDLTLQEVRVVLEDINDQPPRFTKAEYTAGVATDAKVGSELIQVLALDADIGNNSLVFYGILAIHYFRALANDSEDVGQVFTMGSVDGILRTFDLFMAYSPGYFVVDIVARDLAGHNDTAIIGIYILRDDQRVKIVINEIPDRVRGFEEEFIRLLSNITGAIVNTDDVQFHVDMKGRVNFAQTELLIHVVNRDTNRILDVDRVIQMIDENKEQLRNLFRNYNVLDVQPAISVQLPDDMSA

B1: single-bond PCDH15 fusion protein (EC1-5/EC3-5 Fc heterodimer with one EC1-2 binding domain) (Fc fusion)
chain 1: not shown
chain 2: QGDDLGPMFLPCVLVPNTRDCRPLTYQAAIPELRTPEELNPILVTPPIQAIDQDRNIQPPSDRPGILYSILVGTPEDYPRFFHMHPRTAELTLLEPVNRDFHQKFDLVIKAEQDNGHPLPAFASLHIEILDENNQSPYFTMPSYQGYILESAPVGATISESLNLTTPLRIVALDKDIEDTKDPELHLFLNDYTSVFTVTPTGITRYLTLLQPVDREEQQTYTFLITAFDGVQESEPVVVNIRVMDANDNTPTFPEISYDVYVYTDMSPGDSVIQLTAVDADEGSNGEISYEILVGGKGDFVINKTTGLVSIAPGVELIVGQTYALTVQASDNAPPAERRHSICTVYIEVLPPNNQ
modifications: SNAPtag coupled to a benzylguanine DNA tether
How did the koff [1] turn out when B1 was run?
The koff was 0.5 ± 0.1 s⁻¹.

B2: dimeric full-ectodomain PCDH15 fusion protein (Fc fusion)
chain: not shown
modifications: SNAPtag coupled to a benzylguanine DNA tether, or to BG-Biotin in some force-spectroscopy conditions
notes: protocadherin-15, mouse, the entire extracellular domain up to the last hydrophilic amino acid before the transmembrane domain (11 EC domains); The two halves carry opposing Fc heterodimerisation domains and the same cadherin ectodomain; also called full-length dimer; full-ectodomain mouse PCDH15; source: HEK Expi293 cells, co-transfected, secreted; purified (Ni-NTA or TALON, size-exclusion on …)
B2 was tested. Which kon [2] did it give?
Its kon is 350000 M⁻¹ s⁻¹.

B3: dimeric full-ectodomain PCDH15 R113G^+/+ fusion protein (both strands mutated) (Fc fusion)
chain: not shown
modifications: SNAPtag coupled to BG-Biotin (force spectroscopy without the DNA tether)
notes: A human hereditary deafness mutation put into the mouse protein by site-directed mutagenesis; also called homozygous R113G^+/+; source: HEK Expi293 cells, co-transfected, secreted; purified (Ni-NTA or TALON, size-exclusion on Superose 6 Increase)
B3 was tested. Which “mean lifetime of the connection at zero force” value [2] did it give?
The value was 37 s.
